{"source": "the supplement of paper PMC11865577"}
{"tested_on": "TO-3-N3-2 (biotin conjugate)", "assay": "pull-down binding Z-score (relative to library population); higher = stronger binding", "conditions": "RNA library: Library-2", "procedure,_shortened": "(§1)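 To score binding, a beads-only signal was subtracted, barcoded replicate probes were averaged with the highest and lowest dropped, and the value was converted to a Z-score using the library mean and standard deviation. The input was 1 μg of Cy5- or Cy3-end-labelled RNA library, heat-folded in phosphate/NaCl/KCl buffer and mixed for 60 min at 25 °C with streptavidin beads carrying 100 pmol of biotin-conjugated small molecule. Bound RNA was eluted in hot SDS and hybridised to a DNA barcode microarray at 55.5 °C for 20 h.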"}
{"sequence": "AUGGUCUCUAUAUUUAUGAUGAUUAA [hsa-mir-889]", "pull-down binding Z-score": 0.373}
{"sequence": "AUGGUGUUUGUGAGUUGAUUGACAUCGU [hsa-mir-6506]", "pull-down binding Z-score": -0.457}
{"sequence": "AUGGUUAAUGUUCCACAGCCA [hsa-mir-5190]", "pull-down binding Z-score": 0.157}
{"sequence": "AUGGUUCCUAUUCUGAUCAAUAAACAUGGUUUGAGCCUAGUUACAAUGAUCUAAAAUUCACGGUCCAA [hsa-mir-548o]", "pull-down binding Z-score": -0.193}
{"sequence": "AUGGUUUAGAGUUACACCCUGGGAGUUAACUGU [hsa-let-7c]", "pull-down binding Z-score": 0.565}
{"sequence": "AUGUCCCUUUAGUUCAAAGU [hsa-mir-2052]", "pull-down binding Z-score": -0.0713}
{"sequence": "AUGUCUCAGGUCCCCAGCUGAGUCAA [hsa-mir-6513]", "pull-down binding Z-score": 0.129}
{"sequence": "AUGUCUGCUGGGGAACCGGGGCU [hsa-mir-4518]", "pull-down binding Z-score": 0.297}
{"sequence": "AUGUGAUGUCACUGAGGAAAUCACAC [hsa-mir-216b]", "pull-down binding Z-score": -0.272}
{"sequence": "AUGUGAUGUGAGCAGAUGGUUCUCACU [hsa-mir-6758]", "pull-down binding Z-score": -0.346}
{"sequence": "AUGUGAUUGCUGUCCCAAACUCAUGU [hsa-mir-135b]", "pull-down binding Z-score": 0.00564}
{"sequence": "AUGUGUUGUGAUGGCACAGCGU [hsa-mir-592]", "pull-down binding Z-score": -0.582}
{"sequence": "AUGUUCACUUGAUUAAUGGCGAAUAU [hsa-mir-1185-2_1185-1]", "pull-down binding Z-score": -0.39}
{"sequence": "AUGUUCGCUUCAUUCAUCAUGAAUAA [hsa-mir-655]", "pull-down binding Z-score": 0.089}
{"sequence": "AUGUUUAUUGUAAAGAUACUUU [hsa-mir-1305]", "pull-down binding Z-score": -0.418}
{"sequence": "AUUACUUGUGUUCUAUAUAAAGUAUU [hsa-mir-92a-2]", "pull-down binding Z-score": -0.0463}
{"sequence": "AUUAGACAGAAAAAAGUUAGACACAAAAAAUUGUGUCUAAU [hsa-mir-4759]", "pull-down binding Z-score": 0.561}
{"sequence": "AUUAUGUUUUGGACAUAGAAACAUAAC [hsa-mir-5688]", "pull-down binding Z-score": -0.377}
{"sequence": "AUUCAGACUCAGGU [hsa-mir-921]", "pull-down binding Z-score": -0.0856}
{"sequence": "AUUCUGAUGAUCACCUAGCCAGAAU [hsa-mir-5583-2]", "pull-down binding Z-score": 0.566}
{"sequence": "AUUCUGGACACCAG [hsa-mir-147b]", "pull-down binding Z-score": 0.387}
{"sequence": "AUUCUGGAGUCCAUCUAGAG [hsa-mir-1182]", "pull-down binding Z-score": -0.378}
{"sequence": "AUUCUGGCUAGGUGAUCAUCAGAAU [hsa-mir-5583-1]", "pull-down binding Z-score": -0.406}
{"sequence": "AUUGAGAGUUCCUUCUCCUGCUCCUGAU [hsa-mir-6766]", "pull-down binding Z-score": -0.369}
{"sequence": "AUUGAGUUACCUUUCUGACUUUCCCACU [hsa-mir-28]", "pull-down binding Z-score": 0.0519}
{"sequence": "AUUGCACGUGUGUGAGGCGGGUGCAGU [hsa-mir-33b]", "pull-down binding Z-score": 0.102}
{"sequence": "AUUGCAUGUUCUGGUGGUACCCAUGCAAU [hsa-mir-33a]", "pull-down binding Z-score": 0.0325}
{"sequence": "AUUGCUGGACGCUGCCCUGGGCAU [hsa-mir-25]", "pull-down binding Z-score": 0.488}
{"sequence": "AUUGGAUGGAGUCAGGUCUCUAAU [hsa-mir-200b]", "pull-down binding Z-score": 0.101}
{"sequence": "AUUGGCUUGGAUUCUGCAAAGCCU [hsa-mir-7151]", "pull-down binding Z-score": 0.281}
{"sequence": "AUUGUACUGUGGUGGUUACAAU [hsa-mir-34b]", "pull-down binding Z-score": -0.429}
{"sequence": "AUUGUUGCCUCUGCAUGUUACAAU [hsa-mir-8066]", "pull-down binding Z-score": -0.512}
{"sequence": "AUUGUUGUGGGGUAGGGAUAUUAGGCCCCAAUUAGAAGAUAACUAU [hsa-mir-98]", "pull-down binding Z-score": 1.1}
{"sequence": "AUUUAUGUGAACUAAAAUAUAAAU [hsa-mir-513b]", "pull-down binding Z-score": 0.14}
{"sequence": "AUUUCCCAAAGUUGGGAAAA [hsa-mir-320b-2]", "pull-down binding Z-score": -0.231}
{"sequence": "AUUUCUGUAGCUCUGAGACUAGACCU [hsa-mir-544b]", "pull-down binding Z-score": -0.376}
{"sequence": "AUUUCUGUGUUCGUUAGGCAACAG [hsa-mir-221]", "pull-down binding Z-score": 0.283}
{"tested_on": "TO-N3 (biotin conjugate)", "assay": "pull-down binding Z-score (relative to library population); higher = stronger binding", "conditions": "RNA library: Library-2", "procedure,_shortened": "as §1"}
{"sequence": "AUAUGAGCUUCAUUUAUACAUUUCAUAU [hsa-mir-556]", "pull-down binding Z-score": -0.335}
{"sequence": "AUAUGUGUGUAUAUAUGUACACAUAC [hsa-mir-466]", "pull-down binding Z-score": -0.604}
{"sequence": "AUAUUGACACUAUAACAAUAAUGUCAAUAU [hsa-mir-4795]", "pull-down binding Z-score": -0.874}
{"sequence": "AUCAAAGUGGGGACUCAUGGGGAGAG [hsa-mir-4284]", "pull-down binding Z-score": 2.65}
{"sequence": "AUCAAGAAAAGAUUUGGUGUUCUUGAU [hsa-mir-4782]", "pull-down binding Z-score": -0.513}
{"sequence": "AUCACUGAAAUAUGUCUGAGCUUCUGUU [hsa-mir-4501]", "pull-down binding Z-score": -0.658}
{"sequence": "AUCAGCAGAGACAUGAGGUGAUCAAAAACCUUUUUUCAAAGCAGUGGG [hsa-mir-4300]", "pull-down binding Z-score": 0.796}
{"sequence": "AUCAGGCAGUUUCCUG [hsa-mir-4289]", "pull-down binding Z-score": -0.16}
{"sequence": "AUCAGUUCUCAUUUUACACACUGGC [hsa-mir-24-1]", "pull-down binding Z-score": -0.54}
{"sequence": "AUCAUAAUAAAGGUGUCAUGAU [hsa-mir-3682]", "pull-down binding Z-score": -0.879}
{"sequence": "AUCAUCUCUCCCUUGGAU [hsa-mir-3683]", "pull-down binding Z-score": -0.733}
{"sequence": "AUCAUGUAUAAUUAAAAAUGAU [hsa-mir-509-2_509-3_509-1]", "pull-down binding Z-score": -0.599}
{"sequence": "AUCCAGUCCACUUAAUUCUGAGAAAGUCCACAGACUGGAUCGGGUCUUGGAUUUUAGCUGGAUUCAU [hsa-mir-6082]", "pull-down binding Z-score": -0.258}
{"sequence": "AUCCCUUAGAUGCUAAGAUGGGGAU [hsa-mir-145]", "pull-down binding Z-score": -0.513}
{"sequence": "AUCGGUCGAGAGCGUCCUGGCUGAU [hsa-mir-3178]", "pull-down binding Z-score": 0.526}
{"sequence": "AUCUAUUCCAGAAGAU [hsa-mir-4696]", "pull-down binding Z-score": -1.28}
{"sequence": "AUCUCCUUUAGGAAAACCUUCUGUGGGGAGU [hsa-mir-1296]", "pull-down binding Z-score": -0.275}
{"sequence": "AUCUGAAUGAUCUCAGC [hsa-mir-626]", "pull-down binding Z-score": 0.677}
{"sequence": "AUCUGAGGUGACUGGCACAGAAGACUCAGG [hsa-mir-6735]", "pull-down binding Z-score": 0.673}
{"sequence": "AUCUGAUGUUGAAUACUCUUUAAGU [hsa-mir-1245a]", "pull-down binding Z-score": -0.322}
{"sequence": "AUCUGCAGGGCAUUGUGCUAACAGGU [hsa-mir-4681]", "pull-down binding Z-score": 0.644}
{"sequence": "AUCUUCCUGACCUGGUAAUAAUUAGGUGAGAAGGAU [hsa-mir-8069-2_8069-1]", "pull-down binding Z-score": -1.2}
{"sequence": "AUGAGAAAUUGGUUUCAA [hsa-mir-8063]", "pull-down binding Z-score": -0.161}
{"sequence": "AUGAGCUAAAAAUCCCCAAGCUCU [hsa-mir-4769]", "pull-down binding Z-score": -0.477}
{"sequence": "AUGAUAUAUUGUGAGAGCCAUGUCAU [hsa-mir-6718]", "pull-down binding Z-score": -0.0603}
{"sequence": "AUGAUUUUUGGGGUCA [hsa-mir-4678]", "pull-down binding Z-score": -0.0941}
{"sequence": "AUGCACCCAUAUUUUAAUAUCAAACUAUGACAAAUU [hsa-mir-3974]", "pull-down binding Z-score": -0.417}
{"sequence": "AUGCAUGGCUGGUGGCGGCGUGCAG [hsa-mir-6722]", "pull-down binding Z-score": 1.56}
{"sequence": "AUGCCCCAGGUGACGUGCUGGGCU [hsa-mir-4526]", "pull-down binding Z-score": 0.495}
{"sequence": "AUGCCUGAGAAUAUAUGAAGGAGGCU [hsa-mir-204]", "pull-down binding Z-score": 0.525}
{"sequence": "AUGCUAAGUCCAUGGGCAAACAU [hsa-mir-5704]", "pull-down binding Z-score": -0.088}
{"sequence": "AUGGAGAACGCCCCCACCAGUUCCCAC [hsa-mir-6767]", "pull-down binding Z-score": 1.68}
{"sequence": "AUGGAGGCUGCUUCUCCUCAGCAGCUGCCAUA [hsa-mir-3651]", "pull-down binding Z-score": -0.13}
{"sequence": "AUGGAUAUGGGAACUGUGAUGUCCA [hsa-mir-4768]", "pull-down binding Z-score": -0.136}
{"sequence": "AUGGCAUUUAAGGAUUGCUAU [hsa-mir-4477a]", "pull-down binding Z-score": -0.893}
{"sequence": "AUGGGAGCCCAGAGACGUCCUAU [hsa-mir-8074]", "pull-down binding Z-score": 0.0134}
{"sequence": "AUGGGGCAGCUGGGAUGGUCCAAAAGGGUGGCCUCA [hsa-mir-1226]", "pull-down binding Z-score": 1.05}
{"sequence": "AUGGUCUCUAUAUUUAUGAUGAUUAA [hsa-mir-889]", "pull-down binding Z-score": 0.577}
{"sequence": "AUGGUGUUUGUGAGUUGAUUGACAUCGU [hsa-mir-6506]", "pull-down binding Z-score": -0.408}
{"sequence": "AUGGUUAAUGUUCCACAGCCA [hsa-mir-5190]", "pull-down binding Z-score": 0.0767}
{"sequence": "AUGGUUCCUAUUCUGAUCAAUAAACAUGGUUUGAGCCUAGUUACAAUGAUCUAAAAUUCACGGUCCAA [hsa-mir-548o]", "pull-down binding Z-score": -0.587}
{"sequence": "AUGGUUUAGAGUUACACCCUGGGAGUUAACUGU [hsa-let-7c]", "pull-down binding Z-score": 0.437}
{"sequence": "AUGUCCCUUUAGUUCAAAGU [hsa-mir-2052]", "pull-down binding Z-score": -0.283}
{"sequence": "AUGUCUCAGGUCCCCAGCUGAGUCAA [hsa-mir-6513]", "pull-down binding Z-score": 0.609}
{"sequence": "AUGUCUGCUGGGGAACCGGGGCU [hsa-mir-4518]", "pull-down binding Z-score": 0.984}
{"sequence": "AUGUGAUGUCACUGAGGAAAUCACAC [hsa-mir-216b]", "pull-down binding Z-score": -0.124}
{"sequence": "AUGUGAUGUGAGCAGAUGGUUCUCACU [hsa-mir-6758]", "pull-down binding Z-score": -0.621}
{"sequence": "AUGUGAUUGCUGUCCCAAACUCAUGU [hsa-mir-135b]", "pull-down binding Z-score": -0.126}
{"sequence": "AUGUGUUGUGAUGGCACAGCGU [hsa-mir-592]", "pull-down binding Z-score": -0.817}
{"sequence": "AUGUUCACUUGAUUAAUGGCGAAUAU [hsa-mir-1185-2_1185-1]", "pull-down binding Z-score": -0.89}
{"sequence": "AUGUUCGCUUCAUUCAUCAUGAAUAA [hsa-mir-655]", "pull-down binding Z-score": 0.385}
{"sequence": "AUGUUUAUUGUAAAGAUACUUU [hsa-mir-1305]", "pull-down binding Z-score": -0.517}
{"sequence": "AUUACUUGUGUUCUAUAUAAAGUAUU [hsa-mir-92a-2]", "pull-down binding Z-score": -0.716}
{"sequence": "AUUAGACAGAAAAAAGUUAGACACAAAAAAUUGUGUCUAAU [hsa-mir-4759]", "pull-down binding Z-score": 0.136}
{"sequence": "AUUAUGUUUUGGACAUAGAAACAUAAC [hsa-mir-5688]", "pull-down binding Z-score": -0.981}
